# From IntAct's records for PubMed 26385923
# B1: Mitochondrial antiviral-signaling protein (Homo sapiens), Q7Z434 (parent)
# chain: MPFAEDKTYKYICRNFSNFCNVDVVEILPYLPCLTARDQDRLRATCTLSGNRDTLWHLFNTLQRRPGWVEYFIAALRGCELVDLADEVASVYQSYQPRTSDRPPDPLEPPSLPAERPGPPTPAAAHSIPYNSCREKEPSYPMPVQETQAPESPGENSEQALQTLSPRAIPRNPDGGPLESSSDLAALSPLTSSGHQEQDTELGSTHTAGATSSLTPSRGPVSPSVSFQPLARSTPRASRLPGPTGSVVSTGTSFSSSSPGLASAGAAEGKQGAESDQAEPIICSSGAEAPANSLPSKVPTTLMPVNTVALKVPANPASVSTVPSKLPTSSKPPGAVPSNALTNPAPSKLPINSTRAGMVPSKVPTSMVLTKVSASTVPTDGSSRNEETPAAPTPAGATGGSSAWLDSSSENRGLGSELSKPGVLASQVDSPFSGCFEDLAISASTSLGMGPCHGPEENEYKSEGTFGIHVAENPSIQLLEGNPGPPADPDGGPRPQADRKFQEREVPCHRPSPGALWLQVAVTGVLVVTLLVVLYRRRLH
# partner: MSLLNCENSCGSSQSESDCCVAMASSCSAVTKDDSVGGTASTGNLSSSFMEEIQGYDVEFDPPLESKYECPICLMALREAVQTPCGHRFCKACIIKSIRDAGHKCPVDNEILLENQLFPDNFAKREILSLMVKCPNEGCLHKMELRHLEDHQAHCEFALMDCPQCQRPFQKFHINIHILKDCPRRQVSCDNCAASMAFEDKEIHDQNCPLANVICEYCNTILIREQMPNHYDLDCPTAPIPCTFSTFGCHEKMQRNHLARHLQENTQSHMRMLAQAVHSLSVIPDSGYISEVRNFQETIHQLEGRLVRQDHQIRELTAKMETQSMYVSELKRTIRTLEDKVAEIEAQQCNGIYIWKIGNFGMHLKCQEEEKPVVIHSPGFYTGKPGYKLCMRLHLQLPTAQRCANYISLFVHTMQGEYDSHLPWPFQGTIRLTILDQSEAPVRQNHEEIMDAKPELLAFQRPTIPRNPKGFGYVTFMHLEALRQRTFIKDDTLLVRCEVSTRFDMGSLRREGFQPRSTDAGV
# Variants of: B1
# Conditions: with traf6_human TRAF6, Q9Y4K3
row,Variant,effect of a mutation on the interaction
1,Y460A,disrupting interaction strength
2,Y460E,decreasing interaction strength
3,P455D,disrupting interaction strength
4,E457A,disrupting interaction strength
